Measured values taken from the supplement of paper PMC9732359.
± gives the uncertainty stated by the source.

Assay: protein stability index of a GFP-peptide fusion (yeast GPS) (PSI 1-4); higher = more stable; sorted into four equal gates, so the index is relative within each strain
Summary of the method: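 Sequencing reads from sorted gates were used to score each peptide. The library consisted of tiled 17-residue yeast protein peptides fused downstream of GFP on a Cherry-expressing plasmid, pooled and carried in yeast. Mid-log cultures in leucine-free medium were split into four equal gates by GFP/Cherry ratio, and each gate's plasmids were PCR-amplified and Illumina-sequenced. The protein stability index adds up, over all gates, the read frequency multiplied by the gate number.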

| Sequence | protein stability index (doa10∆) | protein stability index (pdr5∆) | protein stability index (san1∆) | protein stability index (ubr1∆) |
| --- | --- | --- | --- | --- |
| RRFKNGFQTGSAKATSA [RPL37B] | 3.02 ± 0.066 | 3.08 ± 0.079 | 3.39 ± 0.09 | 3.18 ± 0.06 |
| ENIPVALCKNRKCQFRT [POP1] | 2.46 ± 0.048 | 2.68 ± 0.059 | 2.32 ± 0.079 | 1.96 ± 0.035 |
| DKLINDVTAIQTWSYLS [ECM29] | 1.77 ± 0.04 | 1.78 ± 0.04 | 1.74 ± 0.087 | 1.83 ± 0.044 |
| TGEWFSSYEEFLERFDF [ITC1] | 2.99 ± 0.098 | 1.99 ± 0.06 | 2.09 ± 0.12 | 2 ± 0.15 |
| DEVGRRSMLTVVRNMLA [YCG1] | 1.54 ± 0.077 | 2.09 ± 0.079 | 3.01 ± 0.13 | 1.52 ± 0.069 |
| KKEEEEQLSEEDAKLKT [RPN1] | 3.19 ± 0.16 | 3.24 ± 0.07 | 3.34 ± 0.11 | 3.06 ± 0.14 |
| VDPKRLAMVIIKEFVDD [DSN1] | 3.33 ± 0.1 | 3.3 ± 0.1 | 3.31 ± 0.096 | 3.1 ± 0.066 |
| EDNNDAVNSIMALKFVS [ECM29] | 3.15 ± 0.1 | 3.3 ± 0.077 | 3.03 ± 0.079 | 3.32 ± 0.07 |
| HVPEKKSTDLTPKGNES [MTR3] | 2.97 ± 0.12 | 2.43 ± 0.13 | 2.66 ± 0.084 | 3.11 ± 0.096 |
| SADREIQRTLMELLTQM [RPT4] | 2.93 ± 0.12 | 3.16 ± 0.1 | 3.27 ± 0.087 | 3.02 ± 0.095 |
| QEKMDPNNSRDDYKDLT [IRR1] | 3.33 ± 0.078 | 3.27 ± 0.083 | 3.23 ± 0.066 | 3.25 ± 0.076 |
| KAFEERHQAGKNQWFFS [RPL27A] | 2.87 ± 0.097 | 3.14 ± 0.11 | 2.65 ± 0.11 | 3.03 ± 0.055 |
| EEKKKEHEEKEKERETN [RPN2] | 3.3 ± 0.23 | 3.37 ± 0.1 | 3.38 ± 0.15 | 3.44 ± 0.24 |
| ALYRVNDLRDMILNYNP [UBP6] | 2.81 ± 0.12 | 2.73 ± 0.19 | 2.81 ± 0.17 | 2.99 ± 0.12 |
| INPESREIVMPAHTKYM [ITC1] | 1.63 ± 0.17 | 1.5 ± 0.2 | 1.69 ± 0.14 | 2.18 ± 0.11 |
| SKNFNVILASSLNEVGT [YML103C/NUP188] | 2.44 ± 0.045 | 2.42 ± 0.043 | 2.56 ± 0.051 | 2.39 ± 0.036 |
| EMEVDAEGEEVEVKAEI [RPN1] | 3.48 ± 0.091 | 3.74 ± 0.24 | 3.55 ± 0.093 | 3.39 ± 0.079 |
| ELSKSRALQENGIIMNG [YMR153W/NUP53] | 2.63 ± 0.16 | 2.85 ± 0.13 | 2.64 ± 0.16 | 3.17 ± 0.15 |
| ANSESGHYQAFIRDELD [UBP6] | 3.31 ± 0.28 | 2.76 ± 0.11 |  | 2.66 ± 0.17 |
| KQQPTMQANKLDSQETP [SWI3] | 2.95 ± 0.12 | 2.98 ± 0.073 | 2.92 ± 0.081 | 2.95 ± 0.071 |
| IIKYPVAFDNINTHIET [SNF2] | 2.45 ± 0.14 | 2.71 ± 0.11 | 2 ± 0.16 | 1.85 ± 0.067 |
| MFRNNYDGDTVTFSPTG [PRE5] | 2.41 ± 0.12 | 2.84 ± 0.096 | 2.52 ± 0.11 | 3.18 ± 0.073 |
| EEELFEVTKEEDIIANY [RRP43] | 3.17 ± 0.088 | 3.08 ± 0.073 | 3.19 ± 0.11 | 3.43 ± 0.077 |
| YLEESFTNLGIIVQYLT [RGR1] | 2.17 ± 0.2 | 2.49 ± 0.29 | 2.16 ± 0.19 | 2.8 ± 0.09 |
| IEAASTTQDQCKLTLDI [RPB8] | 2.92 ± 0.06 | 3.12 ± 0.077 | 2.81 ± 0.042 | 3.07 ± 0.078 |
| DTTVNDCLDKLLNDECT [SNF2] | 3.43 ± 0.16 | 3.46 ± 0.1 | 3.59 ± 0.075 | 3.73 ± 0.094 |

| Sequence | protein stability index (doa10∆) | protein stability index (pdr5∆) | protein stability index (san1∆) | protein stability index (ubr1∆) |
| --- | --- | --- | --- | --- |
| EQDILDLIAEQVVTDYN [SSN2] | 3 ± 0.17 | 3.44 ± 0.12 | 3.08 ± 0.18 | 2.47 ± 0.14 |
| LTEGGSILEEKIAVLNN [SMC1] | 3.31 ± 0.22 | 2.85 ± 0.15 | 3.32 ± 0.11 | 2.87 ± 0.28 |
| GGFEYFLQPLLLVGLIK [NUT1] | 1.46 ± 0.056 | 1.52 ± 0.063 | 1.37 ± 0.11 | 1.87 ± 0.12 |
| KQLIMESQEKYMEPFDL [NSL1] | 3.29 ± 0.072 | 3.31 ± 0.054 | 3.32 ± 0.047 | 3.28 ± 0.039 |
| AFFREKGLVSQQLDSFN [RPB2] | 3.11 ± 0.13 | 3.17 ± 0.19 | 2.96 ± 0.1 | 2.97 ± 0.087 |
| DGYQLFHAEPSGTFYRY [PUP2] | 2.14 ± 0.11 | 1.6 ± 0.095 | 2.64 ± 0.062 | 1.5 ± 0.076 |
| CLDRCKEQYNRYRDLMI [MTR3] | 2.64 ± 0.074 | 2.62 ± 0.046 | 2.69 ± 0.054 | 2.88 ± 0.063 |
| TYPAGFMDVITLDATNE [RPS4A] | 2.71 ± 0.085 | 3.11 ± 0.086 | 3.11 ± 0.062 | 2.95 ± 0.063 |
| IDMIADENGTNSAIANE [RPC37] |  |  |  | 3.17 ± 0.11 |
| KKLSINSAARNIQHLLY [PRE7] | 2.68 ± 0.051 | 2.88 ± 0.062 | 2.81 ± 0.044 | 2.8 ± 0.056 |
| LHLAVGKKWFEVSQFLI [NAS6] | 2.12 ± 0.076 | 1.63 ± 0.059 | 1.63 ± 0.091 | 1.51 ± 0.073 |
| TPNFDDVLKENNDADKG [RIP1] | 1.51 ± 0.093 | 1.35 ± 0.12 | 1.29 ± 0.15 | 1.76 ± 0.092 |
| QFVDMVLPNTALKTSIQ [FAS1] | 2.5 ± 0.091 | 1.61 ± 0.05 | 1.58 ± 0.12 | 1.28 ± 0.039 |
| VVEISNGNTSSKTVVTL [FAS1] | 3.11 ± 0.06 | 3.18 ± 0.05 | 3.28 ± 0.072 | 3.26 ± 0.06 |
| LELAGMDALYEKIWFAI [SIR3] | 1.41 ± 0.095 | 1.53 ± 0.068 | 1.21 ± 0.11 | 1.15 ± 0.052 |
| LNRIINHMLIDSLNQLE [RGR1] | 3.24 ± 0.15 | 2.96 ± 0.23 | 2.89 ± 0.18 | 2.68 ± 0.19 |
| LEKCEAEFKKRKIEAET [YCS4] | 2.79 ± 0.14 | 3.17 ± 0.084 | 3.3 ± 0.21 | 2.98 ± 0.14 |
| LNTLNNVVEIWVFSYLR [SIR3] | 1.56 ± 0.043 | 1.6 ± 0.063 | 1.42 ± 0.11 | 1.58 ± 0.053 |
| ENVEKKEAALKTMIKTI [SMC2] | 1.93 ± 0.058 | 2.29 ± 0.077 | 1.73 ± 0.09 | 2.14 ± 0.039 |
| QLNKVVDQLFEKASVLY [RPN6] | 2.55 ± 0.051 | 2.06 ± 0.052 | 2.62 ± 0.05 | 2.43 ± 0.055 |
| WSTTGDNGELDLSGFNI [MED2] | 3.18 ± 0.09 | 3.19 ± 0.12 | 3.34 ± 0.076 | 2.93 ± 0.097 |
| KIITSRPLQKIMLLQLE [SIN4] | 2.12 ± 0.06 | 2.08 ± 0.052 | 2 ± 0.071 | 1.63 ± 0.044 |
| KLDTEVKNTNANPVVAT [SWP82] | 1.94 ± 0.069 | 2.38 ± 0.082 | 2.54 ± 0.08 | 1.86 ± 0.05 |
| EPSDLRSWTLTSEMKVL [YGL100W/SEH1] | 2.92 ± 0.049 | 2.77 ± 0.045 | 3.16 ± 0.052 | 3.37 ± 0.045 |
| NENPYNNGVSNLWKNIF [COR1] |  | 1.96 ± 0.12 | 2.01 ± 0.15 | 1.86 ± 0.07 |
| IFCVGSGQTFAYGVLDS [PRE2] | 2.49 ± 0.095 | 2.04 ± 0.11 | 2.249 ± 0.019 | 2.33 ± 0.073 |
